This note sets out measurements from US20190185581A1 (University of California, published 2019).

Numbering of substitutions follows the chain as printed. Names and notes keep the numbering of the source.

What is called EC50 is the concentration needed to bring the measured effect to its halfway point. Read a low EC50 as greater potency.

The chains are these.
B1: Fab 3D9 (Fab, V domains shown)
VH: EVQLVESGGGLVQPGGSLRLSCAASGFNIYSSSIHWVRQAPGKGLEWVASIYSSYGYTYYADSVKGRFTISADTSKNTAYLQMNSLRAEDTAVYYCARRLMAYHGSCSSRLCQTAISPQRYAMDYWGQGTLVTVSS
VL: DIQMTQSPSSLSASVGDRVTITCRASQSVSSAVAWYQQKPGKAPKLLIYSASSLYSGVPSRFSGSRSGTDFTLTISSLQPEDFATYYCQQSSYSLITFGQGTKVEIKR
notes: not shown: His tag at the C-terminus of the heavy chain
B2: N-terminal inhibitory domain of tissue inhibitor of metalloproteinase-2 (n-TIMP-2) (other, UniProt P16035 27-153, looked up)
chain: CSCSPVHPQQAFCNADVVIRAKAVSEKEVDSGNDIYGNPIKRIQYEIKQIKMFKGPEKDIEFIYTAPSSAVCGVSLDVGGKKEYLIAGKAEGDGKMHITLCDFIVPWDTLSTTQKKSLNHRYQMGCE
notes: domain: N-terminal domain
B3: Fab 3E9 (Fab, V domains shown)
VH: EVQLVESGGGLVQPGGSLRLSCAASGFNLYYSSMHWVRQAPGKGLEWVASIYPSYGSTYYADSVKGRFTISADTSKNTAYLQMNSLRAEDTAVYYCARNGRYPGFLKRAHKRLLNFKAYVMDYWGQGTLVTVSS
VL: B1 VL with S91G, Y93W, S94Y
notes: as for B1
B4: Fab 32C2 (Fab, V domains shown)
VH: EVQLVESGGGLVQPGGSLRLSCAASGFNLYYYSMHWVRQAPGKGLEWVAYISPYSSSTYYADSVKGRFTISADTSKNTAYLQMNSLRAEDTAVYYCARSQHAKKSTIIRMLEHQSRSGMQYVMDYWGQGTLVTVSS
VL: B1 VL
notes: as for B1
B5: Fab 33D4 (Fab, V domains shown)
VH: EVQLVESGGGLVQPGGSLRLSCAASGFNIYYSSMHWVRQAPGKGLEWVASISPYSGSTYYADSVKGRFTISADTSKNTAYLQMNSLRAEDTAVYYCARSVHMKLSNKILSGWSWNNSFYAMDYWGQGTLVTVSS
VL: B1 VL
notes: also called R2C15; not shown: His tag at the C-terminus of the heavy chain
B6: Fab 3E2 (Fab, V domains shown)
VH: EVQLVESGGGLVQPGGSLRLSCAASGFNIYYYSIHWVRQAPGKGLEWVASIYPYSSYTYYADSVKGRFTISADTSKNTAYLQMNSLRAEDTAVYYCARGIKGLVFTGSQMKMLRRGNYNWYVMDYWGQGTLVTVSS
VL: B1 VL
notes: as for B1
B7: Fab 2B5 (Fab, V domains shown)
VH: EVQLVESGGGLVQPGGSLRLSCAASGFNLSYSSMHWVRQAPGKGLEWVASIYPYSGYTYYADSVKGRFTISADTSKNTAYLQMNSLRAEDTAVYYCARIGVNAWAVKMSQRMLATRGSGWYVMDYWGQGTLVTVSS
VL: DIQMTQSPSSLSASVGDRVTITCRASQSVSSAVAWYQQKPGKAPKLLIYSASSLYSGVPSRFSGSRSGTDFTLTISSLQPEDFATYYCQQSSSYPYSPITFGQGTKVEIKR
notes: as for B1
B8: Fab 3F3 (Fab, V domains shown)
VH: EVQLVESGGGLVQPGGSLRLSCAASGFNIYSSSMHWVRQAPGKGLEWVAYIYPYSGYTYYADSVKGRFTISADTSKNTAYLQMNSLRAEDTAVYYCARLYNGWLMVEGIGSAREGPTWYAMDYWGQGTLVTVSS
VL: B7 VL with S91G, S92G, S93V, P95A, Y96A, S97H, I99F
notes: also called R2C13; not shown: His tag at the C-terminus of the heavy chain
B9: Fab 3G9 (Fab, V domains shown)
VH: EVQLVESGGGLVQPGGSLRLSCAASGFNIYYSSIHWVRQAPGKGLEWVASIYSYSGYTYYADSVKGRFTISADTSKNTAYLQMNSLRAEDTAVYYCARATNEKFRRKSLQVRLLMRSWLAYAMDYWGQGTLVTVSS
VL: B7 VL with S91A, S93Y, Y94A, P95A, Y96S, S97A, P98L
notes: as for B1
B10: Fab 32D1 (Fab, V domains shown)
VH: EVQLVESGGGLVQPGGSLRLSCAASGFNLYYSYMHWVRQAPGKGLEWVASISPYSGYTYYADSVKGRFTISADTSKNTAYLQMNSLRAEDTAVYYCARMSLHRNFNQQGRSRLLGRMPRTYGMDYWGQGTLVTVSS
VL: DIQMTQSPSSLSASVGDRVTITCRASQSVSSAVAWYQQKPGKAPKLLIYSASSLYSGVPSRFSGSRSGTDFTLTISSLQPEDFATYYCQQYYSLITFGQGTKVEIKR
notes: as for B1
B11: Fab 33C4 (Fab, V domains shown)
VH: EVQLVESGGGLVQPGGSLRLSCAASGFNLYSSSMHWVRQAPGKGLEWVASIYPYYGYTYYADSVKGRFTISADTSKNTAYLQMNSLRAEDTAVYYCARPTTSRVNKKLFRVSVLHPGSYGMDYWGQGTLVTVSS
VL: B10 VL with Y91A, Y92S, S93Y
notes: also called R2C3; not shown: His tag at the C-terminus of the heavy chain
B12: Fab R2C5 (Fab, V domains shown)
VH: EVQLVESGGGLVQPGGSLRLSCAASGFNLSSYYMHWVRQAPGKGLEWVASIYPYSSYTSYADSVKGRFTISADTSKNTAYLQMNSLRAEDTAVYYCARIMKIKRNSLKFRGFVPLQMQYVMDYWGQGTLVTVSS
VL: B10 VL with Y91S, S93G, I95F
B13: MMP-14 catalytic domain mutant F198A (enzyme)
chain: not shown
B14: MMP-14 catalytic domain mutant Y203A (enzyme)
chain: not shown
B15: MMP-14 catalytic domain mutant F204A (enzyme)
chain: not shown
B16: MMP-14 catalytic domain mutant T190A (enzyme)
chain: not shown
B17: MMP-14 catalytic domain mutant N231A (enzyme)
chain: not shown

The first experiment has as its target T1, catalytic domain of MMP-14 (cdMMP-14) (human, UniProt P50281 114-287, limits assumed, biotinylated (Sulfo-NHS-LC-Biotin) where immobilised via streptavidin). Description: cell-based or functional assay.
Regarding B1, the “IC50 of inhibition at neutral pH 7.5” value worked out at 65 nM, the “IC50 of inhibition at pH 6.5” value came to 10.5 nM and the “IC50 of inhibition at pH 8.5” value amounted to 157 nM.

For B2, the “inhibitory IC50 (FRET peptide substrate)” value turned out to be 5.1 nM.

A further experiment deals with T1, catalytic domain of MMP-14 (cdMMP-14). Briefly: cell-based or functional assay. This is another data set of the same source.
Take B3: the “IC50 by FRET Assay” value amounted to 6000 nM.

For the molecule B4, the “IC50 by FRET Assay” value was determined as 8000 nM.

For the molecule B5, the “IC50 by FRET Assay” value came to 3900 nM.

Regarding B6, the “IC50 by FRET Assay” value stood at 42 nM.

Consider B1, for which the “IC50 by FRET Assay” value is 61 nM.

As for B7, the “IC50 by FRET Assay” value was 240 nM.

In the case of B8, the “IC50 by FRET Assay” value was found to be 970 nM.

For B9, the “IC50 by FRET Assay” value was 390 nM.

Consider B10, for which the “IC50 by FRET Assay” value worked out at 4200 nM.

Consider B11, for which the “IC50 by FRET Assay” value amounted to 4600 nM.

For a further experiment the target is unchanged. Briefly: cell-based or functional assay. The source holds these as a separate data set.
On to B5, for which the “Inhibition potency (FRET IC50)” value is 3900 nM.

For B8, the “Inhibition potency (FRET IC50)” value worked out at 970 nM.

For B12, the “Inhibition potency (FRET IC50)” value was determined as 50 nM.

B11: the “Inhibition potency (FRET IC50)” value came to 4600 nM.

The target is the same in a further experiment. Briefly: ELISA, Fab titrated on immobilised biotin-cdMMP-14, anti-Fab-HRP. For orientation: ELISA stands for enzyme-linked immunosorbent assay.
As to B5, the response was half-maximal at 460 nM (EC50).

Turning to B8, the midpoint of the response, the EC50, lay at 34 nM.

As for B12, a half-maximal response (EC50) required 375 nM.

For B11, the EC50 was 220 nM.

The target is the same in a further experiment. Description: ELISA, Fab titrated on immobilised MMP-14 catalytic domain, anti-Fab-HRP.
Description: Bound Fabs were detected using the anti-Fab-HRP conjugate. The half-maximal effective concentration (EC₅₀) was calculated from a four-parametric logistic curve-fitting analysis.
Consider B3, for which the EC50 is 51 nM.

As to B4, it took 150 nM to reach a half-maximal effect (EC50).

Turning to B5, it took 460 nM to reach a half-maximal effect (EC50).

On to B6, for which a half-maximal effect (EC50) was put at 47 nM.

Regarding B1, the EC50 came out at 6.4 nM.

B7 registered an EC50 of 24 nM.

Regarding B8, a half-maximal effect (EC50) was put at 34 nM.

B9 showed an EC50 of 160 nM.

As for B10, the EC50 is 350 nM.

Molecule B11 returned an EC50 of 220 nM.

In another experiment the target is catalytic domain of MMP-2 (human, UniProt P08253 115-449, limits assumed, biotinylated (Sulfo-NHS-LC-Biotin)). Description: ELISA, purified Fab at 50, 100, 250 and 500 nM on immobilised MMP catalytic domain, anti-Fab-HRP, OD450.
Chain of catalytic domain of MMP-2 (P08253 other isoform, or with tags, fused parts or gaps limits assumed): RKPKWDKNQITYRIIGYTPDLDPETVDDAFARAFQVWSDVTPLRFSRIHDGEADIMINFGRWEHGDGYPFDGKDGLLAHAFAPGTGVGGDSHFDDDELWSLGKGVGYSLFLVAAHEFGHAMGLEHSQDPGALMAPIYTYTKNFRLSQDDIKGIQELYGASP
As to B6, the binding result is listed as “no binding (tested: 500 nM)”.

Turning to B1, the binding result is “no binding (tested: 500 nM)”.

Take B7: the binding result is “no binding (tested: 500 nM)”.

A further experiment deals with T2, catalytic domain of MMP-9 (cdMMP-9) (human, UniProt P14780 107-443, limits assumed).
T2 sequence: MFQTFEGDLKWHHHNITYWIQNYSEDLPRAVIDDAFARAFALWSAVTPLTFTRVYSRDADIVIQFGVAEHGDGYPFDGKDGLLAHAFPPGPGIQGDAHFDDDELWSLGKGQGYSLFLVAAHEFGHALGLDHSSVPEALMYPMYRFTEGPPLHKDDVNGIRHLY
The description is as above.
Turning to B6, the binding result was “no binding (tested: 500 nM)”.

As for B1, the binding result is listed as “no binding (tested: 500 nM)”.

Take B7: the binding result is “no binding (tested: 500 nM)”.

A further experiment has as its target T3, Fab 3A2.
T3 construct: also called R3C9; not shown: His tag at the C-terminus of the heavy chain
Description: competitive ELISA: 10 nM Fab 3A2 pre-incubated with soluble MMP-14 (WT or mutant), then captured on immobilised wild-type MMP-14; anti-Fab-HRP.
Take B13: the “IC50 (read off the curve)” value was ~100 nM.

Take B14: the “IC50 (read off the curve)” value was ~100 nM.

Regarding B15, the binding result is “binds”.

As to B16, the “IC50 (read off the curve)” value was ~100 nM.

On to B17, for which the binding result is reported as “binds”.

The target in a further experiment is T2, catalytic domain of MMP-9 (cdMMP-9). Description: competitive ELISA: Fab R2C5 at its IC50 concentration pre-incubated with soluble cdMMP-9, then added to a plate coated with 100 nM cdMMP-14; anti-Fab-HRP.
Turning to B12, the binding result is listed as “no binding (tested: about 4000 nM (log10(nM) about 3.6))”.

The target in the next experiment is T1, catalytic domain of MMP-14 (cdMMP-14). Description: competitive ELISA: serially diluted n-TIMP-2 with Fab 3A2 fixed at 10 nM on biotinylated cdMMP-14 on streptavidin wells; bound Fab detected with anti-Fab-HRP; competitor: Fab 3A2.
For the molecule B2, the “IC50 (read off the curve)” value was ~30 nM.
